IntAct's records for PubMed 22699936

B1: Centrosomal P4.1-associated protein (Homo sapiens), Q9HC77 (parent)
chain: MFLMPTSSELNSGQNFLTQWMTNPSRAGVILNRGFPILEADKEKRAAVDISTSFPIKGTHFSDSFSFINEEDSLLEEQKLESNNPYKPQSDKSETHTAFPCIKKGPQVAACHSAPGHQEENKNDFIPDLASEFKEGAYKDPLFKKLEQLKEVQQKKQEQLKRQQLEQLQRLMEEQEKLLTMVSGQCTLPGLSLLPDDQSQKHRSPGNTTTGERATCCFPSYVYPDPTQEETYPSNILSHEQSNFCRTAHGDFVLTSKRASPNLFSEAQYQEAPVEKNNLKEENRNHPTGESILCWEKVTEQIQEANDKNLQKHDDSSEVANIEERPIKAAIGERKQTFEDYLEEQIQLEEQELKQKQLKEAEGPLPIKAKPKQPFLKRGEGLARFTNAKSKFQKGKESKLVTNQSTSEDQPLFKMDRQQLQRKTALKNKELCADNPILKKDSKARTKSGSVTLSQKPKMLKCSNRKSLSPSGLKIQTGKKCDGQFRDQIKFENKVTSNNKENVTECPKPCDTGCTGWNKTQGKDRLPLSTGPASRLAAKSPIRETMKESESSLDVSLQKKLETWEREKEKENLELDEFLFLEQAADEISFSSNSSFVLKILERDQQICKGHRMSSTPVKAVPQKTNPADPISHCNRSEDLDHTAREKESECEVAPKQLHSLSSADELREQPCKIRKAVQKSTSENQTEWNARDDEGVPNSDSSTDSEEQLDVTIKPSTEDRERGISSREDSPQVCDDKGPFKDTRTQEDKRRDVDLDLSDKDYSSDESIMESIKHKVSEPSRSSSLSLSKMDFDDERTWTDLEENLCNHDVVLGNESTYGTPQTCYPNNEIGILDKTIKRKIAPVKRGEDLSKSRRSRSPPTSELMMKFFPSLKPKPKSDSHLGNELKLNISQDQPPGDNARSQVLREKIIELETEIEKFKAENASLAKLRIERESALEKLRKEIADFEQQKAKELARIEEFKKEEMRKLQKERKVFEKYTTAARTFPDKKEREEIQTLKQQIADLREDLKRKETKWSSTHSRLRSQIQMLVRENTDLREEIKVMERFRLDAWKRAEAIESSLEVEKKDKLANTSVRFQNSQISSGTQVEKYKKNYLPMQGNPPRRSKSAPPRDLGNLDKGQAASPREPLEPLNFPDPEYKEEEEDQDIQGEISHPDGKVEKVYKNGCRVILFPNGTRKEVSADGKTITVTFFNGDVKQVMPDQRVIYYYAAAQTTHTTYPEGLEVLHFSSGQIEKHYPDGRKEITFPDQTVKNLFPDGQEESIFPDGTIVRVQRDGNKLIEFNNGQRELHTAQFKRREYPDGTVKTVYANGHQETKYRSGRIRVKDKEGNVLMDTEL

Variants of: B1
Conditions: with tnks1_human TNKS

Variant | effect of a mutation on the interaction
G1303A | disrupting interaction
D1302A | disrupting interaction
